T1: soluble mouse TNFR2 (mouse, UniProt P25119 23-258, limits assumed)
T1 sequence (looked up): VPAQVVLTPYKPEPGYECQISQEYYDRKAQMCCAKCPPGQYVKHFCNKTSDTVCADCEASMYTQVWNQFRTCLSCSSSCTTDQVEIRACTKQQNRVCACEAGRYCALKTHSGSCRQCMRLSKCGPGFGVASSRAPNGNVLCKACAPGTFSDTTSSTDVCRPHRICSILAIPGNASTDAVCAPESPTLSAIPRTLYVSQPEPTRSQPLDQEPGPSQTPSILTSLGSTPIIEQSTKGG

T2: cynomolgus TNFR2-His tagged protein (cynomolgus, UniProt A0A2K5VET2 132-366)
T2 construct: also called Cyno TNFR2; cynomolgus TNFR2 protein; not shown: His tag
T2 sequence: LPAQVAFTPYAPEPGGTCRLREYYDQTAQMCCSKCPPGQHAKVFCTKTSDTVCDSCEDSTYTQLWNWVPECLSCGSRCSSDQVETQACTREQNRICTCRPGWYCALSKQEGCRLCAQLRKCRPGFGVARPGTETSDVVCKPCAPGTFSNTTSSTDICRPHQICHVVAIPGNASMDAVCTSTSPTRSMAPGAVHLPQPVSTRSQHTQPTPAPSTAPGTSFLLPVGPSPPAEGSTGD

T3: human TNFR2-His tagged protein (soluble) (human, UniProt P20333 23-257)
T3 construct: also called hTNFR2 (soluble); soluble TNFR2-His; not shown: His tag
T3 sequence (looked up): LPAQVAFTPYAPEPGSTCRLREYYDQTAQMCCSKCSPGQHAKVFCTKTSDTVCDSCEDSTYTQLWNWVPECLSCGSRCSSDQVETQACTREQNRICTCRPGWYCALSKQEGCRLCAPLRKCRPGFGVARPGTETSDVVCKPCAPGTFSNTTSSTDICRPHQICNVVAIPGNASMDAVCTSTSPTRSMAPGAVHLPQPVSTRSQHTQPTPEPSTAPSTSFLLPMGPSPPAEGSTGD

T4: TNFR-Fc (UniProt P20333 23-257, limits assumed)
T4 construct: Printed only as TNFR-Fc; not shown: Fc part
T4 sequence (looked up): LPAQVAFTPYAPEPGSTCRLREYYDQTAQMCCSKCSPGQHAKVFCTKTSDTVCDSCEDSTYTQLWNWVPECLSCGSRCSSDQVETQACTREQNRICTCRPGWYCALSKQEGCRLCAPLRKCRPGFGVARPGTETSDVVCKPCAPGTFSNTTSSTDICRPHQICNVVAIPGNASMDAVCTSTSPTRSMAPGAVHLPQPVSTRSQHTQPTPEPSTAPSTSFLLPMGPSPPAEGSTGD

T5: human TNFR2 expressed on cells (human, UniProt P20333 23-461)
T5 construct: whole, on cells; also called hTNFR2 (cell); CHO-TNFR2
T5 sequence (looked up): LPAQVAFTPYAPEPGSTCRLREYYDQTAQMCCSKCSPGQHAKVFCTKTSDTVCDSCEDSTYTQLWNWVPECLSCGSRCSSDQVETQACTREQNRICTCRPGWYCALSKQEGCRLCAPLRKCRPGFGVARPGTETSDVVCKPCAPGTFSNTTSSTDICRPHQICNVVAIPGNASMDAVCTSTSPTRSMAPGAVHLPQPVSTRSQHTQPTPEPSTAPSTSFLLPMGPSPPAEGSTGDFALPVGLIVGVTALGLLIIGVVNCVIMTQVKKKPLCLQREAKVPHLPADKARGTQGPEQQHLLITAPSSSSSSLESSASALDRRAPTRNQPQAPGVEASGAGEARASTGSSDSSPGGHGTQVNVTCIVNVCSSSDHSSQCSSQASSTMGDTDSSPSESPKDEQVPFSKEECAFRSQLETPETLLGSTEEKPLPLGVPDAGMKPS


Tests used:
[1] = target: T1, soluble mouse TNFR2; assay: binding screen on soluble mouse TNFR2 (mouse cross-reactivity)
[2] = target: T2, cynomolgus TNFR2-His tagged protein; assay: ELISA on coated cynomolgus TNFR2-His
Experimental: (§1) In FIGS. 3A-3B, human (3A) or cynomolgus (3B) TNFR2-His tagged protein was coated on 96-well ELISA plates at 1 μg/mL and incubated overnight at 4° C. Plates were washed and blocked using 1% BSA. Antibodies were added for 1 hour at room temperature (RT), washed, and detected using anti-Human HRP. Assay was developed using TMB substrate for 3-5 minutes. In FIG. 3C, FACS binding was performed on CHO cells that were engineered to express human TNFR2. Briefly, antibodies were incubated with 200,000 cells in MACS buffer for 1 hour followed by wash and detection using anti-human IgG BV421 for 20 minutes. Samples were analyzed using Cytoflex or MACSQuant flow cytometers. In FIG. 3D, ligand blocking ELISA was performed by coating plates with 1 ug/mL TNFR-Fc overnight at 4° C. Plates were washed, blocked and antibodies were incubated for 1 hr at RT. […] Assay was developed using TMB substrate for 5-7 minutes.

[3] = target: T3, human TNFR2-His tagged protein (soluble); assay: ELISA on coated human TNFR2-His
Experimental: as §1

[4] = target: T4, TNFR-Fc; assay: TNF-α blocking ELISA on coated TNFR-Fc
Experimental: as §1

[5] = target: T5, human TNFR2 expressed on cells; assay: flow cytometry on CHO cells expressing human TNFR2
Experimental: as §1

[6] = target: T2, cynomolgus TNFR2-His tagged protein; assay: ELISA, cynomolgus TNFR2
[7] = target: T5, human TNFR2 expressed on cells; assay: flow cytometry, cell-expressed human TNFR2
[8] = target: T3, human TNFR2-His tagged protein (soluble); assay: ELISA, soluble human TNFR2
[9] = target: T5, human TNFR2 expressed on cells; assay: cell binding on TNFR2-overexpressing (OE) cells

Row | Binder | binding result [1] | EC50 [2] [nM] | EC50 [3] [nM] | IC50 [4] [nM] | EC50 [5] [nM] | EC50 [6] [nM] | EC50 [7] [nM] | EC50 [8] [nM] | Kd [9] [nM]
1 | chimeric antibody clone 42 (rab600_25_42) (antibody, V domains shown) VH: QSLEESGGRLVTPGTPLTLTCTVSGIDLSTYAMIWVRQAPGKGLEYIGFIRPGGSAWYASWAKGRFTISKTSTTVDREITSPTTEDTATYFCATYDTYGYGDTRLWGPGTLVTVSS VL: AYDMTQTPASVEVAVGGTVTIKCQASESIFSYLAWYQQKPGQRPKLLIYYASTLASGVPSRFKGSGSGTQFTLTISGVECADAATYYCQQGYDFSAVDNVFGGGTEVVVK | no binding | 0.184 | 0.242 | 11.2 | 0.091 |  |  |  | 
2 | humanized antibody clone 37 (taken as h600_25_37) (antibody, V domains shown) VH: EVQLVESGGGLVQPGGSLRLSCAASGIDLSNYAMGWVRQAPGKGLEWVGSRRTDGITYYANWAEGRFTISRDNSKNTLYLQMNSLRAEDTAVYYCGRDVGGEGGWYFNLWGQGTLVTVSS VL: DIQMTQSPSTLSASVGDRVTITCQASQSINIYLAWYQQKPGKAPKLLIYDASKLASGVPSRFSGSGSGTEFTLTISSLQPDDFATYYCQQGINNIGFGGGTKVEIK |  |  |  |  |  | 0.056 | 109 | 0.072 | 
3 | chimeric antibody clone 108 (taken as rab600_25_108) (antibody, V domains shown) VH: QSVEESGGRLVTPGTPLTLTCKASGFSLSDYFMTWVRQAPGKGLEWIGIINTGGDSYYATWAKGRFTISKTSTTVDLKISSPTTEDTATYFCARDTGYGGYDYAGSFDPWGPGTLVTVSS VL: AIKMTQTPASVSEPVGGTVTIKCQASENINSWLAWYQQKPGQPPKLLIYEASKLASGVPSRFKGSGSGTQFTLTISDLECADAATYYCQQGYIYIDVGNIFGGGTEVVVK | no binding | 0.327 | 0.256 | 4.55 | 0.18 |  |  |  | 
4 | chimeric antibody clone 4 (rab600_23_4) (antibody, V domains shown) VH: QSVEESGGRLVTPGTPLTLTCTVSGIDLSSYTMGWVRQAPGKGLEYIGFISSSGHTYYANWAKGRFTISKTSSTTVDLKMTSLTTEDTATYFCARDGGYGGYDYTGIFNLWGQGTLVTVSS VL: DIVMTQTASPVSAAVGGTVTIKCQATESISSWLAWYQQKPGQPPKLLIYGASTLESGVPSRFSGSGSGTEFTLTISGVQCDDAATYYCQQGYIYTNVDNTFGGGTEVVVK | no binding | 0.099 | 0.094 | 2.74 | 0.147 |  |  |  | 
5 | humanized antibody clone 25-10 (h600_24_10) (antibody, V domains shown, its CDRs are those of rab600_25_10) VH: EVQLLESGGGLVQPGGSLRLSCAASGIDLSRYAMAWVRQAPGKGLEWVGYIDTGDSTYYATWAKGRFTISRDNSKNTLYLQMNSLRAEDTAVYYCTNVGVRMYLWGQGTLVTVSS VL: DIQMTQSPSSLSASVGDRVTITCQASQSISSYLSWYQQKPGKAPKLLIYRASTLESGVPSRFSGSGSGTDFTLTISSLQPEDFATYYCQCGYYGGSYIGAFGGGTKVEIK |  |  |  |  |  | 0.113 | 1.38 | 0.053 | 1.05
6 | humanized antibody clone 25-103 (h600_24_103) (antibody, V domains shown, its CDRs are those of rab600_25_103) VH: EVQLVESGGGLVQPGGSLRLSCAASGIDLSSYAMGWVRQAPGKGLEWVGFIDTGGSTYYANWAKGRFTISRDNSKNTLYLQMNSLRAEDTAVYYCANVGARMYLWGQGTLVTVSS VL: DIQMTQSPSSLSASVGDRVTITCQASQSISNLLAWYQQKPGKAPKLLIYRASTLESGVPSRFSGSGSGTDFTLTISSLQPEDFATYYCQCSYYGGSYIGAFGGGTKVEIK |  |  |  |  |  | 0.107 | 0.57 | 0.097 | 0.468
7 | chimeric antibody clone 11D7.1 (rab600_23_11D7.1) (antibody, V domains shown, also called rab600_23_HD7.1) VH: QEQLEESGGGLVQPGGSLKLSCKASGFDFSRYYMSWVRQAPGKGLEWIGYIDPIFGNTYYASWVNGRFTISSHNAQNTLYLQLNNLTAADTATYFCARDGDAGYDGYGYGTDLWGPGTLVTVSS VL: QVLTQTPSSVSEPVGGTVTINCQASENIYSGLAWYQQKPGQPPKLLIVSAFTLASGVPSRFKGSGTGTEFTLTISGVQCDDAATYYCQTYYYGSVTYFNAFGGGTEVVVK | no binding | 0.0396 | 0.14 | 6.09 | 0.17 |  |  |  | 
8 | chimeric antibody clone 102 (rab600_23_102) (antibody, V domains shown) VH: QSVEESGGRLVTPGTPLTLTCTASGFSLSTYDMIWVRQAPGKGLEWIGYIWSDGITDYASWAKGRFTISKTSTTVDLKVTSPTTEDTATYFCARDVGYAGYGYYFDLWGQGTLVTVSS VL: ALVMTQTPASVEVAVGGTVTIKCQASQSITNYLAWYRQKPGQPPKLLIYGASKLASGVPSRFSGSGSGTEYTLTISGVQCDDAATYYCQQGYTSSNVDNPFGGGTEVVVK | no binding | 0.327 | 0.207 | 100 | 0.0901 |  |  |  | 
9 | chimeric antibody clone 127 (rab600_23_127) (antibody, V domains shown) VH: QEQLEESGGDLVKPEGSLTLTCTASGFDFSVNAMCWVRQAPGKGPEWIAYISNADGSTHYASWVNGRFTISRSTSLNTVTLQMTRLTVSDTATYFCARAPYAGYTGYGYLNLWGPGTLVTVSS VL: DVVMTQTPASVSGPVGGTVTIKCQASQNIDSDLAWYQQKPGQRPKLLIYDASKLASGVPSRFSGSGYGTEFTLTISGVQCEDAATYYCQYTYYINTYGGAFGGGTEVVVK | no binding | 60 | 0.313 | 6.62 | 0.11 |  |  |  | 
10 | chimeric antibody clone 92 (rab600_25_92) (antibody, V domains shown) VH: QSVEESGGRLVKPDETLTLICTVSGFSLSSHHMIWVRQAPGEGLEGIGIIDAGSGSTYYASWAKGRFTISRTSTTVDLKIASPTTEDTATYFCARGGLTESLGTYFDLWGPGTLVTVSS VL: DIVMTQTPASVEAAVGGTVTIKCQASESIDSGLAWYQQKPGQRPKLLIYDSSTLASGVPSRFKGSGSGTDFTLTISDLECADAATYYCQSNYDTGSSVYDWGSFGGGTEVVVK | no binding | 0.191 | 0.131 | 3.06 | 0.086 |  |  |  | 
11 | chimeric antibody clone 107 (rab600_23_107) (antibody, V domains shown) VH: QSVEESGGRLVTPGTPLTLTCTVSGFSLSSNAISWVRQAPGKGLEWIGIINTYDNTAYATWAKGRFSISRTSTTVDLKITSPATKDTATYFCARDVHNNVVPYYFDMWGQGTLVTVSS VL: AYDMTQTPATVEVAVGGTVTINCQASQSISNLLAWYQQKPGQRPKLLIYDTSDLASGVPSRFSGSGSGTEYTLTITGVECADAATYYCQQGYSSSNIDNVFGGGTEVVVK | no binding | 0.315 | 0.325 | 2.22 | 0.485 |  |  |  | 
12 | chimeric antibody clone 57 (rab600_23_57) (antibody, V domains shown) VH: QSVEESGGRLVTPGTPLTLTCTVSGFSLSSYAMGWVRQAPGKGLEWIGIIGSGGNTYYATWAKGRFTISRTSTTVDLRITSPTTEDTATYFCARDVGYGDYDALDLWGQGTLVTVSS VL: DVVMTQTPSSVSEPVGGTVTIKCQASEEISSNLAWYQQKPGQPPKLLMYAASNLASGVSSRLKGSRSGTDYTLTISGVQCDDAATYFCQCTYIGSGYVVAFGGGTEVVVK | no binding | 0.057 | 0.067 | 0.741 | 0.073 |  |  |  | 
